The data set deals with the molecule itself. The data set is described as follows: SEC + other: glycerol gradient sedimentation; purified FLAG-Fkh1; Superdex 200 5/150 GL in 150N buffer (25 mM Hepes-NaOH pH 7.6, 150 mM NaCl, 10% glycerol, 1 mM β-mercaptoethanol); main-peak and shoulder fractions on 10 to 15% glycerol gradients, 180,000g, 18 h, 4 °C; approximate molecular weight from Stokes radius and S value; monomer and dimer.

B1: full-length Fkh1 (natural protein, Saccharomyces cerevisiae, UniProt P40466 1-484, looked up)
chain: MSVTSREQKFSGKYSSYTAQDRQGLVNAVTCVLSSSSDPVAVSSDYSNSLSIAREVNAYAKIAGCDWTYYVQKLEVTIGRNTDSLNLNAVPGTVVKKNIDIDLGPAKIVSRKHAAIRFNLESGSWELQIFGRNGAKVNFRRIPTGPDSPPTVLQSGCIIDIGGVQMIFILPEQETIISDYCLNHLMPKLLSTYGTNGNNNPLLRNIIEGSTYLREQRLQEEARLQQLDHLHTPLSSSSDVNPIGDPHGDTIMMEEDEEDENYTRGGIRPNTYTSSSNNAVTNGNVPHIENPSDLSLDENRYIKPPQSYASMITQAILSTPEGSISLADIYKFISDNYAFYRFSQMAWQNSVRHNLSLNKAFEKVPKRAGQQGKGMNWKISDEVRRDFLNKWNAGKLSKIRRGASVTRQLQLHMSKFGEIPAPESSSIDPRGIKAQKVKKSLQATSSILGESAPQLQRTQLTGQISTTTSMDVTTNANVNNSSLS
notes: Fkh1, Forkhead family transcription factor of Saccharomyces cerevisiae, full length (the truncation Δ410–484 tells a length of 484 residues); also called wild-type Fkh1; FLAG-tagged full-length Fkh1; source: S. cerevisiae (W303 derivative), GAL1-10 promoter, galactose-induced; also in whole-cell extract of a strain co-expressing two differently tagged copies; not shown: FLAG, N-terminal, kept
Consider B1, for which the stoichiometry N (in general, a count of units in the complex or per binding partner) is 2.

Values taken from paper PMC10403728, “Interactions between Fkh1 monomers stabilize its binding to DNA replication origins” (The Journal of Biological Chemistry, 2023).
